Measurements taken from patent publication US9593156B2 (priority 2012, dated 2017).
Square brackets hold non-standard residues; d marks the D form. Primed or numbered codes have the meaning given here. Ends that are not written are not given here. PEG4′ = PEG spacer of 4 units in the linker; PEG8′ = PEG spacer of 8 units in the linker

Columns and labels:
[1] = blood glucose lowering in mice
[2] = target: T1, type B insulin receptor (IR-B) (Homo sapiens, UniProt P06213); test: Receptor kinase activity (phosphorylation) assay, type B insulin receptor; assay type: cell-based; settings: Table 17
T1 construct: expressed in transfected cells; host or cells: HEK293

[3] = target: T2, type A insulin receptor (IR-A) (Homo sapiens, UniProt P06213); test: Receptor kinase activity (phosphorylation) assay, type A insulin receptor; assay type: cell-based
T2 construct: expressed in transfected cells; host or cells: HEK293

Q: With “C8-PEG20K B^1(H5,Y16,L17)25-PEG8-K-PEG4-A^1(N18,N21) (GPEHLCGAELVDALYLVCGDRGFY[PEG8′]K(PEG 20 kDa)[PEG4′]GIVDECCFRSCDLRRLENYCN; ends and bridges not checked) [#38]” as the substance, how does the duration of action [1] read?
A: The duration of action was 24 h.

Q: What about the “Phosphorylation (EC50) % IR-B” value [2] of the same substance?
A: Its value is 2.0%.

Q: What about the “% Insulin Activity IR-A” value ([3]; Table 12) of the same substance?
A: Its value is 14.8%.

Q: What about the “Phosphorylation (EC50) % IR-A” value ([3]; Table 17) of the same substance?
A: The value was 14.8%.

Q: And the “agonist character at the insulin receptor (type A)” value ([3]; result in words)?
A: The value was “full agonist”.
